The values that follow come from PMC10185811 (2023).

Assay [1] has as its target T1, His6-RPN1 WT (human, UniProt Q13200 1-908). The experiment in a line: BLI; in presence of GST; unit inferred, M assumed. A general note: In BLI a coated tip is dipped into the sample, and binding shifts an interference pattern.
The target of assay [2] is T1, His6-RPN1 WT. Put plainly: BLI.
Assay [3] concerns the target T1, His6-RPN1 WT. The experiment in a line: BLI; NUB1L pre-bound to GST-FAT10; unit inferred, M assumed.

T1 sequence (Q13200 whole entry): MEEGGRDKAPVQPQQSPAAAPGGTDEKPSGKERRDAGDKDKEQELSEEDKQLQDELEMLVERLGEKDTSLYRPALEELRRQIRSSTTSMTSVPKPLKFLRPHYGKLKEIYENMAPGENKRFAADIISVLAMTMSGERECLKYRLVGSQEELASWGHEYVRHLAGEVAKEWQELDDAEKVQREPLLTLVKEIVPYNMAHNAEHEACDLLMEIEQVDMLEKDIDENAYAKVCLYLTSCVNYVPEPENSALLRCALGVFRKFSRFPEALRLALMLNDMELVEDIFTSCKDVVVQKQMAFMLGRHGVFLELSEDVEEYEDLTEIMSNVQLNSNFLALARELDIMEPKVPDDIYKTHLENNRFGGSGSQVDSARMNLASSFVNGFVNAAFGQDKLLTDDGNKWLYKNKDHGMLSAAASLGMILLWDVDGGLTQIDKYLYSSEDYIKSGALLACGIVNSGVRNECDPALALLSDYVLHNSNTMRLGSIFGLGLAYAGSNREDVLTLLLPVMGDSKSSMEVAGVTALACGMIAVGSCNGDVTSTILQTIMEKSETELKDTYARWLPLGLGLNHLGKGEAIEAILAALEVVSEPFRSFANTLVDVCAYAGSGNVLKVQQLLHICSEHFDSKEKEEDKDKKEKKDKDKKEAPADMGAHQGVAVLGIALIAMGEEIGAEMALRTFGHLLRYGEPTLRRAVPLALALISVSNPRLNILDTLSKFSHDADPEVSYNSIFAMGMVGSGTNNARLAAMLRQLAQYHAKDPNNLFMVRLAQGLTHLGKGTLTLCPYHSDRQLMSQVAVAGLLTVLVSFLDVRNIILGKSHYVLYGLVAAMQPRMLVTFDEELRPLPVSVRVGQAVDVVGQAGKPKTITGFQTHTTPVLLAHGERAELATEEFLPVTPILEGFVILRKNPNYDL

B1: NUB1L (NEDD8 ultimate buster 1 long), tagless (natural protein)
chain: MAQKKYLQAKLTQFLREDRIQLWKPPYTDENKKVGLALKDLAKQYSDRLECCENEVEKVIEEIRCKAIERGTGNDNYRTTGIATIEVFLPPRLKKDRKNLLETRLHITGRELRSKIAETFGLQENYIKIVINKKQLQLGKTLEEQGVAHNVKAMVLELKQSEEDARKNFQLEEEEQNEAKLKEKQIQRTKRGLEILAKRAAETVVDPEMTPYLDIANQTGRSIRIPPSERKALMLAMGYHEKGRAFLKRKEYGIALPCLLDADKYFCECCRELLDTVDNYAVLQLDIVWCYFRLEQLECLDDAEKKLNLAQKCFKNCYGENHQRLVHIKGNCGKEKVLFLRLYLLQGIRNYHSGNDVEAYEYLNKARQLFKELYIDPSKVDNLLQLGFTAQEARLGLRACDGNVDHAATHITNRREELAQIRKEEKEKKRRRLENIRFLKGMGYSTHAAQQVLHAASGNLDEALKILLSNPQMWWLNDSNPETDNRQESPSQENIDRLVYMGFDALVAEAALRVFRGNVQLAAQTLAHNGGSLPPELPLSPEDSLSPPATSPSDSAGTSSASTDEDMETEAVNEILEDIPEHEEDYLDSTLEDEEIIIAEYLSYVENRKSATKKN
B1: the Kd (as a rule, the constant that tells how readily two partners part at equilibrium) in assay [1] was determined as 1.56 µM; in assay [2], 1.71 µM.

B2: GST-FAT10 (natural protein)
chain: MAPNASCLCVHVRSEEWDLMTFDANPYDSVKKIKEHVRSKTKVPVQDQVLLLGSKILKPRRSLSSYGIDKEKTIHLTLKVVKPSDEELPLFLVESGDEAKRHLLQVRRSSSVAQVKAMIETKTGIIPETQIVTCNGKRLEDGKMMADYGIRKGNLLFLACYCIGG
Consider B2, for which binding in assay [2] was characterised by a dissociation constant (Kd) of 4040 µM.

B3: NUB1L-bound GST-FAT10 (NUB1L co-incubated with GST-FAT10) (complex)
chain 1: MAQKKYLQAKLTQFLREDRIQLWKPPYTDENKKVGLALKDLAKQYSDRLECCENEVEKVIEEIRCKAIERGTGNDNYRTTGIATIEVFLPPRLKKDRKNLLETRLHITGRELRSKIAETFGLQENYIKIVINKKQLQLGKTLEEQGVAHNVKAMVLELKQSEEDARKNFQLEEEEQNEAKLKEKQIQRTKRGLEILAKRAAETVVDPEMTPYLDIANQTGRSIRIPPSERKALMLAMGYHEKGRAFLKRKEYGIALPCLLDADKYFCECCRELLDTVDNYAVLQLDIVWCYFRLEQLECLDDAEKKLNLAQKCFKNCYGENHQRLVHIKGNCGKEKVLFLRLYLLQGIRNYHSGNDVEAYEYLNKARQLFKELYIDPSKVDNLLQLGFTAQEARLGLRACDGNVDHAATHITNRREELAQIRKEEKEKKRRRLENIRFLKGMGYSTHAAQQVLHAASGNLDEALKILLSNPQMWWLNDSNPETDNRQESPSQENIDRLVYMGFDALVAEAALRVFRGNVQLAAQTLAHNGGSLPPELPLSPEDSLSPPATSPSDSAGTSSASTDEDMETEAVNEILEDIPEHEEDYLDSTLEDEEIIIAEYLSYVENRKSATKKN
chain 2: MAPNASCLCVHVRSEEWDLMTFDANPYDSVKKIKEHVRSKTKVPVQDQVLLLGSKILKPRRSLSSYGIDKEKTIHLTLKVVKPSDEELPLFLVESGDEAKRHLLQVRRSSSVAQVKAMIETKTGIIPETQIVTCNGKRLEDGKMMADYGIRKGNLLFLACYCIGG
As to B3, the Kd in assay [3] came to 0.432 µM.
